# Results published in article PMC8146883, “A New Thermophilic Ene-Reductase from the Filamentous Anoxygenic Phototrophic Bacterium Chloroflexus aggregans” (Microorganisms, 2021).
# Target: CaOYE, ene-reductase (Old Yellow Enzyme homologue) from Chloroflexus aggregans (Chloroflexus aggregans DSM 9485) (UniProt B8G5D6)
# Experiment: crystal structure; N-terminally His6-tagged CaOYE at 20 mg/mL in 50 mM Tris-HCl pH 8.0; crystals from 100 mM HEPES pH 7.0, 1.1 M sodium malonate, 0.5% Jeffamine ED-2003, 293 K; space group C2221, 4 molecules per asymmetric unit; dimer seen in the crystal packing
# CaOYE, ene-reductase (Old Yellow Enzyme homologue) from Chloroflexus aggregans, sequence (B8G5D6 whole entry): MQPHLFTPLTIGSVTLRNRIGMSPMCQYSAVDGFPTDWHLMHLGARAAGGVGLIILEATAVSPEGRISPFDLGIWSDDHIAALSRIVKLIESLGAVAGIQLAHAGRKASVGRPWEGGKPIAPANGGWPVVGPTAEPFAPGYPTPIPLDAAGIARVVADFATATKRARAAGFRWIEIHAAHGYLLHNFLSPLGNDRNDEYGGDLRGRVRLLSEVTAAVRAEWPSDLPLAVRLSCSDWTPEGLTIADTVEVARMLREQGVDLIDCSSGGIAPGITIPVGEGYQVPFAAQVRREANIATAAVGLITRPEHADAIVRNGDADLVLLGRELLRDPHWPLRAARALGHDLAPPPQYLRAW
substance,measurement,value
"CaOYE, ene-reductase (Old Yellow Enzyme homologue) from Chloroflexus aggregans (from UniProt B8G5D6 1-354)",stoichiometry N,2
